For experiment [1], the target named is Cyno TfR extracellular domain (analogous ecd construct) (cynomolgus monkey). Description: SPR, bispecific antibody. A general note: Surface plasmon resonance follows binding to a sensor surface in real time, without labels.
Experiment [2] deals with Human TfR extracellular domain (ecd) containing an N-terminal His tag (human) (UniProt P02786). Description: SPR, bispecific antibody.
Chain of Human TfR extracellular domain (ecd) containing an N-terminal His tag (human) (P02786 89-760 G142S): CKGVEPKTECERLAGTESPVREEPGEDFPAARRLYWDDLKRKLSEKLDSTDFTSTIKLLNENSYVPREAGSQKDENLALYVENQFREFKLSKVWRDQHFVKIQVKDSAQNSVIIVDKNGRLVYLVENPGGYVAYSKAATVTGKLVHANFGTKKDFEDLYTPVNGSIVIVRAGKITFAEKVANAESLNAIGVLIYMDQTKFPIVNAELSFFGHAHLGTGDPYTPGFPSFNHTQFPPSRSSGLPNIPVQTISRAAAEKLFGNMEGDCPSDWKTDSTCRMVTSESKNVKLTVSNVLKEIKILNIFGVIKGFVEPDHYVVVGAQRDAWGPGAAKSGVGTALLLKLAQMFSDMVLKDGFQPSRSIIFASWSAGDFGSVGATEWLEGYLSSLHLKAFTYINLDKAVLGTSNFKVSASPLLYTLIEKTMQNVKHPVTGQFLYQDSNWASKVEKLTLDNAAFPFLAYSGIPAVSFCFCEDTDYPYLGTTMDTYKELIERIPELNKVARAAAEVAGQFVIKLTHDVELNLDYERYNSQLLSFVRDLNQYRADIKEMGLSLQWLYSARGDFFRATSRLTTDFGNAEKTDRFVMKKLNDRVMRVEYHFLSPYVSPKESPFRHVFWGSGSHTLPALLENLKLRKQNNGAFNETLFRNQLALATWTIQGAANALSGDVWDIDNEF

Chain of Cyno TfR extracellular domain (analogous ecd construct) (cynomolgus monkey) (Q5RDH6 other isoform, or with tags, fused parts or gaps): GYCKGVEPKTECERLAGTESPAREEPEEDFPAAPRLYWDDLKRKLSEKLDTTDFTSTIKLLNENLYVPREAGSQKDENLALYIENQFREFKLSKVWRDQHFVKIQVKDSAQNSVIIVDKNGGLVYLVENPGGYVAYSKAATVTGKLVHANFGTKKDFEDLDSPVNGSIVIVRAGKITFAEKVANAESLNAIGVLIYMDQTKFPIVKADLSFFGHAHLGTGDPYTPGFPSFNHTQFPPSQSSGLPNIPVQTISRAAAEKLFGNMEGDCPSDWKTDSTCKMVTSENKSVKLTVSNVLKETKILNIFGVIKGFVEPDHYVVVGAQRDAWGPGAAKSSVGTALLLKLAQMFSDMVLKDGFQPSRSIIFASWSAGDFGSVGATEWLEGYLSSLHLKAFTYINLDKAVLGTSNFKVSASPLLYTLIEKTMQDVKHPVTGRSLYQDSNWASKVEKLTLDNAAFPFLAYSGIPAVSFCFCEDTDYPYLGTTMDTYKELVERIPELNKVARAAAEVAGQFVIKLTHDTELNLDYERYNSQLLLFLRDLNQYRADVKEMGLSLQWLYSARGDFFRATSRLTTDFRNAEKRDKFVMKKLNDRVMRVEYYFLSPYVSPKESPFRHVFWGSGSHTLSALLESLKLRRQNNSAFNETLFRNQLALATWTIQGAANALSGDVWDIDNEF

B1: Anti-TfR^53A/BACE1 bispecific antibody, human IgG1 N297G (bispecific antibody, part only; not given: anti-BACE1 half-antibody, V domains shown, not shown: another chain or arm of the molecule; a dimerising Fc or GST; small tags and cut ends)
VH: EVQLVQSGAEVKKPGASVKVSCKASGYTFTSYWMHWVRQAPGQRLEWIGEINPANGRTNYIEKFKSRATLTVDKSASTAYMELSSLRSEDTAVYYCARGTRAYHYWGQGTMVTVSS
VL: DIQMTQSPSSLSASVGDRVTITCRASDNLYSNLAWYQQKPGKSPKLLVYDATNLADGVPSRFSGSGSGTDYTLTISSLQPEDFATYYCQHFWGTPLTFGQGTKVEIK
By Kd is commonly meant a measure of binding affinity in units of concentration. A lower Kd goes with higher affinity. As to B1, the figures for the Kd in experiment [1] and in experiment [2] were 143 nM and 24 nM, respectively.
